Columns and labels:
[1] = target: T7 helicase-primase gp4A' (wild-type helicase) (bacteriophage T7) (UniProt P03692)
[2] = target: T7 helicase-primase gp4A' (wild-type helicase) (bacteriophage T7) (UniProt P03692); experiment: single-molecule optical trapping (DNA unzipping force); helicase and DNAP in solution with a tethered forked dsDNA, 2 mM dTTP; after helicase unwound ~1000 bp under 9 pN the remaining DNA was unzipped mechanically at 2000 bp/s; a force-rise above the naked DNA baseline shows protein bound across the fork junction; 50 mM Tris-HCl pH 7.5, 40 mM NaCl, 10% glycerol; 25 ± 1 °C

replication re-initiation efficiency after collision with a stalled E. coli TEC, normalised against the TEC formation efficiency [1]: 15% | traces that passed a stalled co-directional E. coli TEC and went over to unwinding with leading-strand synthesis, 0.5 mM dNTP each, 5 pN [1]: 12% | peak of the force-rise [2]: 26 pN | percent of traces with a force-rise above the naked DNA baseline [2]: 75%
Substance: T7 DNA polymerase (gp5/trx complex), exo- gp5 (D5A, D7A) with E. coli thioredoxin (from UniProt P00581 1-704; P0AA25 1-109)

Reference: paper PMC5997990
